Here are results for two molecules from PMC5566547, “Nei-like 1 (NEIL1) excises 5-carboxylcytosine directly and stimulates TDG-mediated 5-formyl and 5-carboxylcytosine excision”.

In this data set the target is NEIL1 P2T (human, UniProt Q96FI4 1-390, P2T). Briefly: EMSA; EMSA: 25 mM Tris-HCl pH 7.5, 100 mM NaCl, 1 mM DTT, 10 nM DNA, 1-200 nM NEIL1 P2T, on ice 30 min; 6% native PAGE, 0.5x TBE, 4 C. Conditions: protein: recombinant; tags: C-terminal His6; label: 5'-32P top strand; blunt.
NEIL1 P2T, sequence (Q96FI4 whole entry P2T): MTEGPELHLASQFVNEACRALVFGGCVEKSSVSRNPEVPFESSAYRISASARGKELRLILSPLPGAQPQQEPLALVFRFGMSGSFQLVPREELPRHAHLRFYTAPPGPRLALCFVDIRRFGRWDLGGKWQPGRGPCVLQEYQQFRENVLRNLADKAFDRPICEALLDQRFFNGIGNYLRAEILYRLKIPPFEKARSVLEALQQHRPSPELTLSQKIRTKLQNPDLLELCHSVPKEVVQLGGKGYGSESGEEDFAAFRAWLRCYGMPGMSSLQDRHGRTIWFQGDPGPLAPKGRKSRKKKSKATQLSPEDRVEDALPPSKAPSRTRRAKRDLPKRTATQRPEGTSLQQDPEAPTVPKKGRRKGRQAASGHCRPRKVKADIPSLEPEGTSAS

B1: 41-mer 5caC:G (dsDNA)
DNA 1: GCTACCTACCTAGCAGGGGCCAGCTGTCCCACTGCTCGGAA
DNA 2: TTCCGAGCAGTGGGACAGCTGGCCCCTGCTAGGTAGGTAGC
modifications: 5-carboxylcytosine at position 20 of top strand
On to B1, for which the binding result is “binds”.

B2: 41-mer 5OHC:G (dsDNA)
DNA 1: GCTACCTACCTAGCAGGGGCCAGCTGTCCCACTGCTCGGAA
DNA 2: TTCCGAGCAGTGGGACAGCTGGCCCCTGCTAGGTAGGTAGC
modifications: 5-hydroxycytosine at position 20 of top strand
As to B2, the binding result is reported as “binds”.
